# Assay results published in patent US20240124607A1 (Merck Sharp & Dohme, published 2024).
# T1: Human CEACAM5 (E398) (human, UniProt P06731 35-685, limits assumed)
# T1 construct: also called hCEACAM5
# T1 sequence: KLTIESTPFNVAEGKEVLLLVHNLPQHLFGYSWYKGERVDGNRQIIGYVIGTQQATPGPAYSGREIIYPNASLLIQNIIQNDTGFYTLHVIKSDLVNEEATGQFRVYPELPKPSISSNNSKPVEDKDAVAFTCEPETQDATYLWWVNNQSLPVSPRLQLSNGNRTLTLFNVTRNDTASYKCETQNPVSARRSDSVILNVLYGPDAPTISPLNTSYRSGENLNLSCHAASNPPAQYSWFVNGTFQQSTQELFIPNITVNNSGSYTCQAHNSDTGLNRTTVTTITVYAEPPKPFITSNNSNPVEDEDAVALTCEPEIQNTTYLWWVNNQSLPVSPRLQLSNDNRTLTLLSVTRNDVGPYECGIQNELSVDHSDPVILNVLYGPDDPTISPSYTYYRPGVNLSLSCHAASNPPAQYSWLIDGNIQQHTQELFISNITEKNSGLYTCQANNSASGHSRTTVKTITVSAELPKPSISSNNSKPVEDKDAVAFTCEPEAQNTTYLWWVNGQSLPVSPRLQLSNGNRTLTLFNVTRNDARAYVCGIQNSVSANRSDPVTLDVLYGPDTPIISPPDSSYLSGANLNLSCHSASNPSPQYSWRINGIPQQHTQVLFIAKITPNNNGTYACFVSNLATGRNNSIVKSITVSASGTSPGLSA
# T2: CEACAM5 N-A1-B1-His (human, UniProt P06731 35-322, limits assumed)
# T2 sequence: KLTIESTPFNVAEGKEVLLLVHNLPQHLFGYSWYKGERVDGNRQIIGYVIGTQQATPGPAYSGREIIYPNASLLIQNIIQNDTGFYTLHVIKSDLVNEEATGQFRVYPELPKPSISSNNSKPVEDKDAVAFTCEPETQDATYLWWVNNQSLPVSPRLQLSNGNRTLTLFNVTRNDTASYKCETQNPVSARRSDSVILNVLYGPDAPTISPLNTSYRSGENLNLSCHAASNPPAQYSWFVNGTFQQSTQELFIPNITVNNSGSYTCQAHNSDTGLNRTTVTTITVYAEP
# T3: Cyno NKG2D-mFc (cynomolgus monkey, UniProt P61252 78-216, limits assumed)
# T3 construct: also called cynomolgus NKG2D fused to a mouse Fc
# T3 sequence (looked up): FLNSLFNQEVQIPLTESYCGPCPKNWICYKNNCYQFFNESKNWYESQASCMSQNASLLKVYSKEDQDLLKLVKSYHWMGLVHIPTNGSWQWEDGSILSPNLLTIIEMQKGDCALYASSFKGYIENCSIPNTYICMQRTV
# T4: soluble mouse Fc-human NKG2D dimer (human, UniProt P26718 78-216, limits assumed)
# T4 construct: also called NKG2D-mFc; human NKG2D fused to a mouse Fc
# T4 sequence (looked up): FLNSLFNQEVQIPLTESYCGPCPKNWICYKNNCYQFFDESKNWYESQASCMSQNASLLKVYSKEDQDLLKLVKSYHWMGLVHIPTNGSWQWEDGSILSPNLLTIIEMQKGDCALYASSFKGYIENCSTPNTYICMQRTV
# T5: human CEACAM5 on cells (human, UniProt P06731 35-685)
# T5 construct: tumour cell lines with endogenous CEACAM5, or B16F10 engineered to express hCEACAM5; also called CEACAM5 on MKN-45, HPAF-II, SK-CO-1, LoVo, BxPC-3, Kato-III, LS-174T, ZR-75-30; hCEACAM5-B16F10
# T5 sequence: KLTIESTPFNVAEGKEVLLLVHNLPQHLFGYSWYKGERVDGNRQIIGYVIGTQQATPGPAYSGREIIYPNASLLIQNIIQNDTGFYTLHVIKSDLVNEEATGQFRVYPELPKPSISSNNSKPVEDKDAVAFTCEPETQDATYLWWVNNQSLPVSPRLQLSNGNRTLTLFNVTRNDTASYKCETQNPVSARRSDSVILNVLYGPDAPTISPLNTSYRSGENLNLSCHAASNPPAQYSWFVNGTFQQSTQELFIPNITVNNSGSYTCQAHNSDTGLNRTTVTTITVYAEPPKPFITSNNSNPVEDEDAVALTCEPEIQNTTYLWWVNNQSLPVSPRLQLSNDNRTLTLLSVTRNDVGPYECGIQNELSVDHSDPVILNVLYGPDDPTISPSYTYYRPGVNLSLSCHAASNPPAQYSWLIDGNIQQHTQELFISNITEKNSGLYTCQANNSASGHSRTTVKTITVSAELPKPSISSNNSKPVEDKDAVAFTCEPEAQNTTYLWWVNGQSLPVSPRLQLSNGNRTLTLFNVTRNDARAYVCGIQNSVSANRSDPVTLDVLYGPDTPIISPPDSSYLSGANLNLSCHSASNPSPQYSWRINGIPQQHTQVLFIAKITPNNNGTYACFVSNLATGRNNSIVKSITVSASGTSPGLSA
# B1: AB0411 F3' CEACAM5 TriNKET (bispecific antibody, human IgG1, kappa)
# chain: DIQLTQSPATLSVSPGERATLSCRASQSVSSSYLAWYQQKPGQAPRLLIYGASSRATGIPDRFSGSGSGTDFTLTISRLEPEDFAVYYCQQYNNWPLTFGCGTKVEIKGGGGSGGGGSGGGGSGGGGSQVQLVQSGGGLVQPGGSLRLSCAASGFTFTSYAMSWVRQAPGKCLEWVSAISGTGDSTFYADSVKGRFTFSRDNSKNTLYLQMNSLRAEDTAVYYCAKDLGWLQYGLFDYWGQGTLVTVSSGSDKTHTCPPCPAPELLGGPSVFLFPPKPKDTLMISRTPEVTCVVVDVSHEDPEVKFNWYVDGVEVHNAKTKPREEQYNSTYRVVSVLTVLHQDWLNGKEYKCKVSNKALPAPIEKTISKAKGQPREPRVYTLPPCRDELTKNQVSLTCLVKGFYPSDIAVEWESNGQPENNYKTTPPVLVSDGSFTLYSKLTVDKSRWQQGNVFSCSVMHEALHNHYTQKSLSLSPG
# heavy: EVQLVESGGGLVKPGGSLRLSCAASGFTFSSYSMNWVRQAPGKGLEWVSSISSSSSYIYYADSVKGRFTISRDNAKNSLYLQMNSLRAEDTAVYYCARGAPIGAAAGWFDPWGQGTLVTVSSASTKGPSVFPLAPSSKSTSGGTAALGCLVKDYFPEPVTVSWNSGALTSGVHTFPAVLQSSGLYSLSSVVTVPSSSLGTQTYICNVNHKPSNTKVDKKVEPKSCDKTHTCPPCPAPELLGGPSVFLFPPKPKDTLMISRTPEVTCVVVDVSHEDPEVKFNWYVDGVEVHNAKTKPREEQYNSTYRVVSVLTVLHQDWLNGKEYKCKVSNKALPAPIEKTISKAKGQPREPQVCTLPPSRDELTENQVSLTCLVKGFYPSDIAVEWESNGQPENNYKTTPPVLDSDGSFFLYSWLTVDKSRWQQGNVFSCSVMHEALHNHYTQKSLSLSPG
# light: DIQMTQSPSSVSASVGDRVTITCRASQGISSWLAWYQQKPGKAPKLLIYAASSLQSGVPSRFSGSGSGTDFTLTISSLQPEDFATYYCQQGVSFPRTFGGGTKVEIKRTVAAPSVFIFPPSDEQLKSGTASVVCLLNNFYPREAKVQWKVDNALQSGNSQESVTEQDSKDSTYSLSSTLTLSKADYEKHKVYACEVTHQGLSSPVTKSFNRGEC
# Assays:
# Human CEACAM5 (E398) = molecular target: T1, Human CEACAM5 (E398); assay: SPR, anti-hFc capture, 37C, pH 6.0
# Experimental: To determine the affinity and cross-reactivity of CEACAM5 TriNKET molecules, AB0411, AB0466, or AB0621 TriNKETs were captured using an anti-human Fc capture antibody (Cytiva, #BR100839) immobilized onto a Biacore CM5 standard surface sensor chip following manufacturer instructions. Human or cynomolgus CEACAM5 were titrated over captured AB0411, AB0466, and AB0621 as 2-fold serial dilutions starting from 300 nM. Association was monitored for 300 sec and dissociation was monitored for 600 sec. The assay was run at 37° C. at pH 7.4 and 6.0. The surface of the CM5 chip was regenerated with 10 mM glycine pH 1.5 for 20 sec at 100 μL/min.
# CEACAM5 N-A1-B1-His = molecular target: T2, CEACAM5 N-A1-B1-His; assay: SPR, Fab capt, 25C
# Experimental: If the protein domain was an Fc fusion, AB0411, AB0466, AB0264, or AB0621 were captured using an anti-human Fab antibody (Cytiva, #28958325) immobilized onto a CM5 chip. The various hCEACAM5 protein domains (N-term, A1-B1, A2, B2, A3, or B3) were titrated over the captured TriNKETs at 50 μL/min for 180 sec of association and 300 sec of dissociation. The assay was run at 25° C. in HBS-EP+ running buffer, pH 7.4. The surface of the CM5 chip was regenerated using […] glycine pH 2.1.
# Cyno NKG2D-mFc = molecular target: T3, Cyno NKG2D-mFc; assay: SPR, NKG2D-mFc captured, 37C, pH 7.4
# Experimental: (§1) Binding to NKG2D was assessed by SPR using a mouse Fc capture kit (Cytiva, #BR100838) immobilized onto a CM5 chip. Human and cynomolgus NKG2D fused to a mouse Fc were captured and AB0411, AB0466, or AB0621 was titrated from 600 nM.
# [1] = molecular target: T4, soluble mouse Fc-human NKG2D dimer; assay: SPR, NKG2D-mFc captured, 37C, pH 7.4
# Experimental: as §1
# human CEACAM5 on cells = molecular target: T5, human CEACAM5 on cells; assay: flow cytometry, MKN-45 cells
# Experimental: MKN-45 and HPAF-II human cancer cell lines were diluted into FACS buffer and 100,000 cells of each cell type were seeded per well in duplicate into 96-well plates for FACS staining. The cells were washed with PBS, incubated in a 1:2000 dilution of live/dead dye in PBS for 15 minutes, and then washed with FACS buffer. AB0264, AB0411, AB0466, and AB0621 were diluted into FACS buffer, and 50 μl of each diluted TriNKET was added to the cells. After incubation on ice for 30-120 minutes, the cells were washed with FACS buffer. Anti-human IgG-Fc secondary antibody was diluted into FACS buffer, and 50 μl was added per well for detection of the bound TriNKETs. The cells were incubated for 30-60 minutes on ice and then washed with FACS buffer. 50 μl of fixation buffer was added to each well and the cells were incubated for 10 minutes at room temperature. The cells were washed with FACS buffer and resuspended in FACS buffer for analysis with ThermoFisher Attune NxT, BD FACS Celesta SN #H66034400085, or BD FACS Celesta SN #H66034400160.
binder,measurement,setting,value
B1,Kd,Human CEACAM5 (E398),1.9 nM
same,kon,Human CEACAM5 (E398),310000 M⁻¹ s⁻¹
same,Kd,CEACAM5 N-A1-B1-His,0.95 nM
same,kon,CEACAM5 N-A1-B1-His,300000 M⁻¹ s⁻¹
same,Kd,Cyno NKG2D-mFc,590 nM
same,koff,Cyno NKG2D-mFc,0.15 s⁻¹
same,kon,Cyno NKG2D-mFc,260000 M⁻¹ s⁻¹
same,Kd,[1],490 nM
same,koff,[1],0.12 s⁻¹
same,kon,[1],250000 M⁻¹ s⁻¹
same,EC50,human CEACAM5 on cells,16.2 nM
same,Max FOB,human CEACAM5 on cells,120 fold over background
